# Patent US20150344570A1 (published 2015)
# T1: FcγRIIb extracellular domain with C-terminal His tag (human, UniProt P31994 43-217)
# T1 construct: extracellular domain; Soluble receptor used as analyte in Biacore; also called FcgRIIb
# T1 sequence (looked up): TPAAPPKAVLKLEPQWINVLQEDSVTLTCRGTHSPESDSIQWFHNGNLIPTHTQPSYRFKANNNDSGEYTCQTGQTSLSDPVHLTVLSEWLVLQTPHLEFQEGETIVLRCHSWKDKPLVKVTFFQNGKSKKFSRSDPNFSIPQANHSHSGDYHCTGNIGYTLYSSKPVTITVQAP
# T2: FcγRIIb extracellular domain with C-terminal His tag (human, UniProt P31994 43-217)
# T2 construct: extracellular domain; also called FcgRIIb; 2b; not shown: His tag attached to the C terminus
# T2 sequence (looked up): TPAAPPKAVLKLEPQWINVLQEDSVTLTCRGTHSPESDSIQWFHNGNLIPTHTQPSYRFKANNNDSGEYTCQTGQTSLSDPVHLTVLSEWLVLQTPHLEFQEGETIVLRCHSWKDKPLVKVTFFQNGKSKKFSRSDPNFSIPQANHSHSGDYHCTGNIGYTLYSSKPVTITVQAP
# B1: GpH7-A5/GpH7-B3 variant A327_10E/GpL16-k0 (antibody, human IgG1, kappa)
# heavy 1: not shown
# heavy 2: not shown
# light: DIVMTQSPLSLPVTPGEPASISCQASESLVHSNRNTYLHWYLQKPGQSPQLLIYKVSNRFSGVPDRFSGSGSGTDFTLKISRVEAEDVGVYYCSQNTHVPPTFGQGTKVEIERTVAAPSVFIFPPSDEQLKSGTASVVCLLNNFYPREAKVQWKVDNALQSGNSQESVTEQDSKDSTYSLSSTLTLSKADYEKHKVYACEVTHQGLSSPVTKSFNRGEC
# notes: Heterodimerized IgG1, mutation in the GpH7-B3 chain only; also called He Ab
# B2: GpH7-A5/GpH7-B3 variant I332_09D/GpL16-k0 (antibody, human IgG1, kappa)
# heavy 1: not shown
# heavy 2: not shown
# light: DIVMTQSPLSLPVTPGEPASISCQASESLVHSNRNTYLHWYLQKPGQSPQLLIYKVSNRFSGVPDRFSGSGSGTDFTLKISRVEAEDVGVYYCSQNTHVPPTFGQGTKVEIERTVAAPSVFIFPPSDEQLKSGTASVVCLLNNFYPREAKVQWKVDNALQSGNSQESVTEQDSKDSTYSLSSTLTLSKADYEKHKVYACEVTHQGLSSPVTKSFNRGEC
# notes: as for B1
# B3: GpH7-A5/GpH7-B3 variant L328_20W/GpL16-k0 (He Ab) (antibody, human IgG1, kappa)
# heavy 1: not shown
# heavy 2: not shown
# light: DIVMTQSPLSLPVTPGEPASISCQASESLVHSNRNTYLHWYLQKPGQSPQLLIYKVSNRFSGVPDRFSGSGSGTDFTLKISRVEAEDVGVYYCSQNTHVPPTFGQGTKVEIERTVAAPSVFIFPPSDEQLKSGTASVVCLLNNFYPREAKVQWKVDNALQSGNSQESVTEQDSKDSTYSLSSTLTLSKADYEKHKVYACEVTHQGLSSPVTKSFNRGEC
# notes: Heterodimerized antibody with the alteration in one H chain only
# B4: GpH7-A5/GpH7-B3 variant L328_19Q/GpL16-k0 (He Ab) (antibody, human IgG1, kappa)
# heavy 1: not shown
# heavy 2: not shown
# light: DIVMTQSPLSLPVTPGEPASISCQASESLVHSNRNTYLHWYLQKPGQSPQLLIYKVSNRFSGVPDRFSGSGSGTDFTLKISRVEAEDVGVYYCSQNTHVPPTFGQGTKVEIERTVAAPSVFIFPPSDEQLKSGTASVVCLLNNFYPREAKVQWKVDNALQSGNSQESVTEQDSKDSTYSLSSTLTLSKADYEKHKVYACEVTHQGLSSPVTKSFNRGEC
# notes: as for B3
# B5: GpH7-A5/GpH7-B3 variant P331_18N/GpL16-k0 (He Ab) (antibody, human IgG1, kappa)
# heavy 1: not shown
# heavy 2: not shown
# light: DIVMTQSPLSLPVTPGEPASISCQASESLVHSNRNTYLHWYLQKPGQSPQLLIYKVSNRFSGVPDRFSGSGSGTDFTLKISRVEAEDVGVYYCSQNTHVPPTFGQGTKVEIERTVAAPSVFIFPPSDEQLKSGTASVVCLLNNFYPREAKVQWKVDNALQSGNSQESVTEQDSKDSTYSLSSTLTLSKADYEKHKVYACEVTHQGLSSPVTKSFNRGEC
# notes: as for B3
# B6: GpH7-A5/GpH7-B3 variant I332_10E/GpL16-k0 (antibody, human IgG1, kappa)
# heavy 1: not shown
# heavy 2: not shown
# light: DIVMTQSPLSLPVTPGEPASISCQASESLVHSNRNTYLHWYLQKPGQSPQLLIYKVSNRFSGVPDRFSGSGSGTDFTLKISRVEAEDVGVYYCSQNTHVPPTFGQGTKVEIERTVAAPSVFIFPPSDEQLKSGTASVVCLLNNFYPREAKVQWKVDNALQSGNSQESVTEQDSKDSTYSLSSTLTLSKADYEKHKVYACEVTHQGLSSPVTKSFNRGEC
# notes: as for B1
# B7: GpH7-A5/GpH7-B3 variant P331_20W/GpL16-k0 (He Ab) (antibody, human IgG1, kappa)
# heavy 1: not shown
# heavy 2: not shown
# light: DIVMTQSPLSLPVTPGEPASISCQASESLVHSNRNTYLHWYLQKPGQSPQLLIYKVSNRFSGVPDRFSGSGSGTDFTLKISRVEAEDVGVYYCSQNTHVPPTFGQGTKVEIERTVAAPSVFIFPPSDEQLKSGTASVVCLLNNFYPREAKVQWKVDNALQSGNSQESVTEQDSKDSTYSLSSTLTLSKADYEKHKVYACEVTHQGLSSPVTKSFNRGEC
# notes: as for B3
# B8: GpH7-A5/GpH7-B3 variant L328_13S/GpL16-k0 (He Ab) (antibody, human IgG1, kappa)
# heavy 1: not shown
# heavy 2: not shown
# light: DIVMTQSPLSLPVTPGEPASISCQASESLVHSNRNTYLHWYLQKPGQSPQLLIYKVSNRFSGVPDRFSGSGSGTDFTLKISRVEAEDVGVYYCSQNTHVPPTFGQGTKVEIERTVAAPSVFIFPPSDEQLKSGTASVVCLLNNFYPREAKVQWKVDNALQSGNSQESVTEQDSKDSTYSLSSTLTLSKADYEKHKVYACEVTHQGLSSPVTKSFNRGEC
# notes: as for B3
# Experiments:
# [1] = target: T3, FcγRIa extracellular domain with C-terminal His tag (human, UniProt P12314 16-292); assay: ratio He/Con_1a : He/Con_2b (FcγRIa over FcγRIIb), SPR (Biacore)
# T3 construct: extracellular domain; Soluble receptor used as analyte in Biacore; also called FcgRI
# [2] = target: T3, FcγRIa extracellular domain with …; assay: SPR (Biacore), antibody captured, FcγR as analyte; binding relative to GpH7-A5/GpH7-B3/GpL16-k0 = 100
# [3] = target: T1, FcγRIIb extracellular domain with …; assay: as above
# [4] = target: T2, FcγRIIb extracellular domain with …; assay: SPR (Biacore), antibody captured on antigen peptide chip, FcγR as analyte; relative binding
# Procedure: (§1) The heterodimerized antibodies He Abs in which one of the H chains was introduced with an alteration were assayed for their binding activities to each activating FcγR and inhibitory FcγR according to the method described in Example 4. […] The activating FcγRs in FIGS. 26, 27, 28, and 29 are FcγRIa, FcγRIIa (R), FcγRIIa (H), and FcγRIIIa, respectively.
# (§2) Analysis of interaction between objective antibody and the FcγR was carried out using Biacore T100 (GE Healthcare). HBS-EP+ (GE Healthcare) was used as the running buffer, and the measurement temperature was set to 25° C. Chips produced by immobilizing the antigen peptide by the amine coupling method to a Series S Sencor Chip CM5 (GE Healthcare), or alternatively, chips produced by allowing preliminarily biotinylated antigen peptides to interact with and immobilize onto a Series S Sensor Chip SA (certified) (GE Healthcare) were used. Antibodies of interest were captured onto an antigen peptide-immobilized chip, and allowed to interact to each FcγR diluted with running buffer. To regenerate and repeatedly use the chip, the antibodies captured on the chip were washed off by reacting 10 mM glycine-HCl, pH 1.5.
# [5] = target: T4, FcγRIIIa extracellular domain with C-terminal His tag (human, UniProt P08637 17-208); assay: as above
# T4 construct: extracellular domain; also called FcgRIIIa; 3a; not shown: His tag attached to the C terminus
# Procedure: as §1, §2
# T3 sequence (P12314 16-292): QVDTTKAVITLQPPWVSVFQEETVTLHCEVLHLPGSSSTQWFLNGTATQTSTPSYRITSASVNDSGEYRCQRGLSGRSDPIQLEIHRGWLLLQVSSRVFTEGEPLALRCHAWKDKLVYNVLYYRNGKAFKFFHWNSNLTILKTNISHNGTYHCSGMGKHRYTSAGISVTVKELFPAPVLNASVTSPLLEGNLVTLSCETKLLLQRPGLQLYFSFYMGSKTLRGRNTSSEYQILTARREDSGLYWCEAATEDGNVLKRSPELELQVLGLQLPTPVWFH
# T4 sequence (P08637 17-208): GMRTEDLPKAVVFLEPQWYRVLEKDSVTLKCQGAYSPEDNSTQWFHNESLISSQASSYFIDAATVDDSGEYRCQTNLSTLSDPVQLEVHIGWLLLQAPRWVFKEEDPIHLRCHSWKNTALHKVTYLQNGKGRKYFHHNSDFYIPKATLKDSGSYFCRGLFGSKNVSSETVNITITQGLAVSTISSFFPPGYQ
Binder,He_1a/2b (Ia/IIb) [1],He/Con_1a [2] [control = 100],He/Con_2b [3] [control = 100],He/Con_2b [4],He/Con_3a [5]
B1,0.74,103,140,,
B2,0.64,93.4,147,,
B3,,,,235 % of GpH7-A5/GpH7-B3/GpL16-k0 (=100),37.4 % of GpH7-A5/GpH7-B3/GpL16-k0 (=100)
B4,,,,105 % of GpH7-A5/GpH7-B3/GpL16-k0 (=100),81.1 % of GpH7-A5/GpH7-B3/GpL16-k0 (=100)
B5,,,,99.2 % of GpH7-A5/GpH7-B3/GpL16-k0 (=100),73.4 % of GpH7-A5/GpH7-B3/GpL16-k0 (=100)
B6,0.68,96.3,142,,
B7,,,,111 % of GpH7-A5/GpH7-B3/GpL16-k0 (=100),78.6 % of GpH7-A5/GpH7-B3/GpL16-k0 (=100)
B8,,,,149 % of GpH7-A5/GpH7-B3/GpL16-k0 (=100),71.7 % of GpH7-A5/GpH7-B3/GpL16-k0 (=100)
